Test results as given in patent US20050203007A1 (REGENTS OF THE UNIVERSITY OF MICHIGAN, published 2005).

Tests used:
subtilisin Carlsberg = biological target: T1, subtilisin Carlsberg (UniProt P00780 106-379); test: enzyme inhibition
T1 sequence (looked up): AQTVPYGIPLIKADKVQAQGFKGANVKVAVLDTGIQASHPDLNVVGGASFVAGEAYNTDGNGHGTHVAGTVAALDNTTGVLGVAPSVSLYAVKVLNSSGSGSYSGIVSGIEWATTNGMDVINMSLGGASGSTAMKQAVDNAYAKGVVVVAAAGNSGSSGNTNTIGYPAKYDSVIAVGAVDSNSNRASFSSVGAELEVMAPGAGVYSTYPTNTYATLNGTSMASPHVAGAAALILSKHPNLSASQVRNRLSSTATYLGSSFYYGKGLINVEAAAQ

secreted, soluble Kex2 [1] = biological target: T2, secreted, soluble Kex2 (Saccharomyces cerevisiae, UniProt P13134 114-613, limits assumed); test: cell-based or functional assay
T2 sequence (looked up): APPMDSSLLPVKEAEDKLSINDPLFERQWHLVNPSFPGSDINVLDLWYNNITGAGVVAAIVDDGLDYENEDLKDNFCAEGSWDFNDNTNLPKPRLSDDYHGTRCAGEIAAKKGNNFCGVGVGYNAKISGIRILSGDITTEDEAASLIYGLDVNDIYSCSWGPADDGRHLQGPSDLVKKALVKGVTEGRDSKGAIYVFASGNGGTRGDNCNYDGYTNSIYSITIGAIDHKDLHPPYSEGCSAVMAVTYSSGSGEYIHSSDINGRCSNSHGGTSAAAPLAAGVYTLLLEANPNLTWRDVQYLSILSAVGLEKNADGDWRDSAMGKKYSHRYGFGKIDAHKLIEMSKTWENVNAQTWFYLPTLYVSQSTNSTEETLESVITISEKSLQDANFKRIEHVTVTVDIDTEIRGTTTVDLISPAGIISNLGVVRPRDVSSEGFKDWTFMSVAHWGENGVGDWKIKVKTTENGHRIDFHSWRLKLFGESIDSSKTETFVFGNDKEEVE

secreted, soluble furin [2] = biological target: T3, secreted, soluble furin (human, UniProt P09958 108-715, limits assumed); test: cell-based or functional assay
T3 sequence (P09958 108-715 limits assumed): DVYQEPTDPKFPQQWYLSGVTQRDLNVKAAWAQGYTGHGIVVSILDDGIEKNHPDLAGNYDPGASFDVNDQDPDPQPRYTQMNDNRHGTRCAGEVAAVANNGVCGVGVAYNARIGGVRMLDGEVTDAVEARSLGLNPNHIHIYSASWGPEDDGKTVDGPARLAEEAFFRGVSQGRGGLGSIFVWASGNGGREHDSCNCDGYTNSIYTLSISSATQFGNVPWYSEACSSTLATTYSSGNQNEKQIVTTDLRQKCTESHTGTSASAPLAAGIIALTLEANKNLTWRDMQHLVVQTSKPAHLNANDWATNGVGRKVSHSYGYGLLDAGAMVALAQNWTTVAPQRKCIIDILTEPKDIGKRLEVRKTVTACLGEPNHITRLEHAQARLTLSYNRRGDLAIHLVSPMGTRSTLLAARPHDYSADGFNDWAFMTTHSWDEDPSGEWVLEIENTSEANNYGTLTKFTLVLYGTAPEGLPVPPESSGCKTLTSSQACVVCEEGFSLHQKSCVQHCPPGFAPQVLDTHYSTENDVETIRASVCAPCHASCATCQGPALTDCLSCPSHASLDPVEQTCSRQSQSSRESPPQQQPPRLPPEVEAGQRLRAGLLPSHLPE

secreted, soluble Kex2 [3] = biological target: T2, secreted, soluble Kex2; test: enzyme inhibition, purified variant
Method: (§1) Affinities of eglin variants with secreted, soluble Kex2 (hereafter “Kex2”; Brenner, C. and Fuller, R. S. (1992) Proc. Natl. Acad. Sci. USA 89: 922-926) and secreted, soluble furin (hereafter, “furin”; Bravo, D. A. et al (1994) J. Biol. Chem. 269: 25830-25837; and Komiyama & Fuller (2000) Biochemistry 39: 15156-15165) were measured by incubating variants with the enzymes (˜0.5 to 2.0 nM) for 45 min to 1 h at 21° C. in one of two enzyme assay buffers. For Kex2, the buffer was 200 mM Bistris (pH 7.27) containing 1 mM CaCl₂ and 0.1% Triton X-100; and for furin, the buffer was 20 mM NaMES (pH 7.0) containing 1 mM CaCl₂ and 0.1% Triton X-100 for furin. 100 to 200 μL aliquots of reaction mixtures were transferred into triplicate wells of opaque 96 well plates (Costar), and residual enzyme activity was measured with an fmax fluorescence micro plate reader (Molecular Devices) by monitoring hydrolysis of a fluorogenic substrate Boc-Arg-Val-Arg-Arg-MCA. Data were graphically analyzed (KaleidaGraph) with an equation developed by Green and Work (1953). Site-directed mutagenesis at P2 and P6 of eglin c generated temporary inhibitors (Table 3) and exhausted possibility to improve affinity further with this approach.

secreted, soluble furin [4] = biological target: T3, secreted, soluble furin; test: enzyme inhibition, purified variant
Method: as §1

secreted, soluble Kex2 [5] = biological target: T2, secreted, soluble Kex2; test: enzyme inhibition, purified variant; remark: listed apart in the source
secreted, soluble furin [6] = biological target: T3, secreted, soluble furin; test: enzyme inhibition, purified variant; remark: listed apart in the source
human PC7 = biological target: T4, human PC7 (human, UniProt Q16549 142-667, limits assumed); test: enzyme inhibition, purified variant
T4 sequence (looked up): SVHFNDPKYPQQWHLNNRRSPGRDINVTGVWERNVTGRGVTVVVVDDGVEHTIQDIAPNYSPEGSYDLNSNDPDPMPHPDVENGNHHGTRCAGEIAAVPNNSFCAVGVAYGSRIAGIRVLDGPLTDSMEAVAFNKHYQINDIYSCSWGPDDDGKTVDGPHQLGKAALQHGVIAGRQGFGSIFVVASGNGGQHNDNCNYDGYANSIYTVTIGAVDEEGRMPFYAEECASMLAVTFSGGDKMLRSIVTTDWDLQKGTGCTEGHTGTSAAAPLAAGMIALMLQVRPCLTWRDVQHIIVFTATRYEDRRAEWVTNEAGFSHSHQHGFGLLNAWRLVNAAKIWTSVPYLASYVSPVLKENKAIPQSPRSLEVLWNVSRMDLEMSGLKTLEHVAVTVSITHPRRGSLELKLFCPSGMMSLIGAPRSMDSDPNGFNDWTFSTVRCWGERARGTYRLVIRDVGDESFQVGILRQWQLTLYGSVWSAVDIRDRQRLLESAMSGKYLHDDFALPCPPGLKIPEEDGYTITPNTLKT

trypsin = test: enzyme inhibition; temporary inhibitor of trypsin
trypsin, sequence (P00760 24-246): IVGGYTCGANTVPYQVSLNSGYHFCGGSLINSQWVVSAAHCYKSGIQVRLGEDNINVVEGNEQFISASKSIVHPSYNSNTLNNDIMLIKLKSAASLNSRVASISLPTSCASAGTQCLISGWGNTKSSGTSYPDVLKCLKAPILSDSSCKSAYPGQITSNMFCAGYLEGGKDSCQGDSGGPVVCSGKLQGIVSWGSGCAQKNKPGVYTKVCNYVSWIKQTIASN

secreted, soluble furin [7] = biological target: T3, secreted, soluble furin; test: affinity resin, eglin immobilized on Reacti-Gel 6X
Method: Resins were synthesized by immobilizing purified M4R1-eglin and R4R1-eglin onto Reacti-Gel 6X (Pierce) using the manufacturer's protocol.
The resins were then used to test binding and elution of furin from these resins. […] Enzyme was eluted with 20 mM NaMES (pH 6.0) with approximately 90% yield. Furin binding capacity to the R4R1-eglin Resin was 10-fold higher relative to the M4R1-eglin Resin, but furin was not eluted by dropping pH. Instead, furin bound to the R4R1-eglin column was eluted with buffer containing 2 mM EDTA. 5 mM CaCl₂ was added to restore activity and 85% of the furin activity was recovered. (Unit definition: Release of 1 pmol of AMC/min in a reaction containing […] Boc-Arg-Val-Arg-Arg-MCA, 1 mM CaCl₂ and 20 mM NaMES (pH 7.0) at 37° C.

secreted, soluble Kex2 [8] = biological target: T2, secreted, soluble Kex2; test: equilibrium enzyme inhibition, fluorogenic substrate
secreted, soluble furin [9] = biological target: T3, secreted, soluble furin; test: as above

- Ka (subtilisin Carlsberg): 6.5e+08 M⁻¹
- % inhibition of enzyme in rapid protease inhibition assay (secreted, soluble Kex2 [1]): 60%
- % inhibition of enzyme in rapid protease inhibition assay (secreted, soluble furin [2]): 60%
- Ki (secreted, soluble Kex2 [3]): 0.91 nM
- Ki ratio (to R4R1- template) (secreted, soluble Kex2 [3]): 1
- Ki (secreted, soluble furin [4]): 2.5 nM
- Ki ratio (to R4R1- template) (secreted, soluble furin [4]): 1
- Ki (secreted, soluble Kex2 [5]): 0.91 nM
- Ki (secreted, soluble furin [6]): 2.5 nM
- Ki (human PC7): 1.3 nM
- Ka (trypsin): 8.4e+09 M⁻¹
- furin binding capacity of the resin relative to the M4R1-eglin Resin (secreted, soluble furin [7]): 10 fold
- Ki (secreted, soluble Kex2 [8]): 0.91 nM
- Ki (secreted, soluble furin [9]): 2.5 nM
B1: R4R1-eglin (designed binder)
chain: SMGSELKSFPEVVGKTVDQAREYFTLHYPQYDVYFLPEGSRVTRDLRYNRVRVFYNPGTNVVNHVPHVG
notes: N-terminal Met removed; also called Tyr49-R4R1-; D33Y49
